Source: PMC11752098

B1: wild-type GABRA2 (α2 subunit of the γ-aminobutyric acid A receptor), FLAG-tagged [human] / GABRB3 (β3 subunit of the GABA-A receptor) [human (endogenous in 293T)] (parent)
chain 1: NIQEDEAKNNITIFTRILDRLLDGYDNRLRPGLGDSITEVFTNIYVTSFGPVSDTDMEYTIDVFFRQKWKDERLKFKGPMNILRLNNLMASKIWTPDTFFHNGKKSVAHNMTMPNKLLRIQDDGTLLYTMRLTVQAECPMHLEDFPMDAHSCPLKFGSYAYTTSEVTYIWTYNASDSVQVAPDGSRLNQYDLLGQSIGKETIKSSTGEYTVMTAHFHLKRKIGYFVIQTYLPCIMTVILSQVSFWLNRESVPARTVFGVTTVLTMTTLSISARNSLPKVAYATAMDWFIAVCYAFVFSALIEFATVNYFTKRGWAWDGKSVVNDKKKEKASVMIQNNAYAVAVANYAPNLSKDPVLSTISKSATTPEPNKKPENKPAEAKKTFNSVSKIDRMSRIVFPVLFGTFNLVYWATYLNREPVLGVSP
chain 2: QSVNDPGNMSFVKETVDKLLKGYDIRLRPDFGGPPVCVGMNIDIASIDMVSEVNMDYTLTMYFQQYWRDKRLAYSGIPLNLTLDNRVADQLWVPDTYFLNDKKSFVHGVTVKNRMIRLHPDGTVLYGLRITTTAACMMDLRRYPLDEQNCTLEIESYGYTTDDIEFYWRGGDKAVTGVERIELPQFSIVEHRLVSRNVVFATGAYPRLSLSFRLKRNIGYFILQTYMPSILITILSWVSFWINYDASAARVALGITTVLTMTTINTHLRETLPKIPYVKAIDMYLMGCFVFVFLALLEYAFVNYIFFGRGPQRQKKLAEKTAKAKNDRSKSESNRVDAHGNILLTSLEVHNEMNEVSGGIGDTRNSAISFDNSGIQYRKQSMPREGHGRFLGDRSLPHKKTHLRRRSSQLKIKIPDLTDVNAIDRWSRIVFPFTFSLFNLVYWLYYVN
B2: wild-type GABRA2 (α2 subunit of the γ-aminobutyric acid A receptor), FLAG-tagged [human] / GABRG2 (γ2 subunit of the GABA-A receptor) [human (endogenous in 293T)] (parent)
chain 1: B1 chain 1
chain 2: QKSDDDYEDYASNKTWVLTPKVPEGDVTVILNNLLEGYDNKLRPDIGVKPTLIHTDMYVNSIGPVNAINMEYTIDIFFAQTWYDRRLKFNSTIKVLRLNSNMVGKIWIPDTFFRNSKKADAHWITTPNRMLRIWNDGRVLYTLRLTIDAECQLQLHNFPMDEHSCPLEFSSYGYPREEIVYQWKRSSVEVGDTRSWRLYQFSFVGLRNTTEVVKTTSGDYVVMSVYFDLSRRMGYFTIQTYIPCTLIVVLSWVSFWINKDAVPARTSLGITTVLTMTTLSTIARKSLPKVSYVTAMDLFVSVCFIFVFSALVEYGTLHYFVSNRKPSKDKDKKKKNPLLRMFSFKAPTIDIRPRSATIQMNNATHLQERDEEYGYECLDGKDCASFFCCFEDCRTGAWRHGRIHIRIAKMDSYARIFFPTAFCLFNLVYWVSYLYL

Variants of: B1
Assay: co-immunoprecipitation (anti-FLAG beads) with Western blot quantification
Conditions: with GABRB3 (β3 subunit of the GABA-A receptor) [human (endogenous in 293T)]; 293T cells transfected with FLAG-tagged GABRA2-WT or GABRA2-MUT; parent: 1; read off a plot

Variant | ratio to parent
chain 1 NIQEDEAKNNITIFTRILDRLLDGYDNRLRPGLGDSITEVFTNIYVTSFGPVSDTDMEYTIDVFFRQKWKDERLKFKGPMNILRLNNLMASKIWTPDTFFHNGKKSVAHNMTMPNKLLRIQDDGTLLYTMRLTVQAECPMHLEDFPMDAHSCPLKFGSYAYTTSEVTYIWTYNASDSVQVAPDGSRLNQYDLLGQSIGKETIKSSTGEYTVMTAHFHLKRKIGYFVIQTYLPCIMTVILSQVSFWLNRESVPARTVFGVTTVLTMTTLSISARNSLPKVVYATAMDWFIAVCYAFVFSALIEFATVNYFTKRGWAWDGKSVVNDKKKEKASVMIQNNAYAVAVANYAPNLSKDPVLSTISKSATTPEPNKKPENKPAEAKKTFNSVSKIDRMSRIVFPVLFGTFNLVYWATYLNREPVLGVSP [chain 1 A280V] | 0.87

Variants of: B2
Assay: as above
Conditions: with GABRG2 (γ2 subunit of the GABA-A receptor) [human (endogenous in 293T)]; 293T cells transfected with FLAG-tagged GABRA2-WT or GABRA2-MUT; parent: 1; read off a plot

Variant | ratio to parent
chain 1 NIQEDEAKNNITIFTRILDRLLDGYDNRLRPGLGDSITEVFTNIYVTSFGPVSDTDMEYTIDVFFRQKWKDERLKFKGPMNILRLNNLMASKIWTPDTFFHNGKKSVAHNMTMPNKLLRIQDDGTLLYTMRLTVQAECPMHLEDFPMDAHSCPLKFGSYAYTTSEVTYIWTYNASDSVQVAPDGSRLNQYDLLGQSIGKETIKSSTGEYTVMTAHFHLKRKIGYFVIQTYLPCIMTVILSQVSFWLNRESVPARTVFGVTTVLTMTTLSISARNSLPKVVYATAMDWFIAVCYAFVFSALIEFATVNYFTKRGWAWDGKSVVNDKKKEKASVMIQNNAYAVAVANYAPNLSKDPVLSTISKSATTPEPNKKPENKPAEAKKTFNSVSKIDRMSRIVFPVLFGTFNLVYWATYLNREPVLGVSP [chain 1 A280V] | 0.88
